Measured values taken from patent US20200308292A1 (ARMAGEN TECHNOLOGIES, published 2020).
Blank lines part the entries; values can stand above or below the binder they belong to.

What was measured:
[1] = molecular target: T1, human insulin receptor extracellular domain (HIR ECD) (human, UniProt P06213 28-956, limits assumed); experiment: ELISA, HIR ECD plated; after normalization for MW (150 kDa)
T1 construct: extracellular domain
Method: (§1) The affinity of the fusion protein for the HIR extracellular domain (ECD) was determined with an ELISA. CHO cells permanently transfected with the HIR ECD were grown in serum free media (SFM), and the HIR ECD was purified with a wheat germ agglutinin affinity column, as previously described in Coloma et al. (2000) Pharm Res, 17:266-274. The HIR ECD was plated on Nunc-Maxisorb 96 well dishes and the binding of the HIR Ab, or the HIR Ab-SGSH fusion protein, to the HIR ECD was detected with a biotinylated goat anti-human IgG (H+L) secondary antibody, followed by avidin and biotinylated peroxidase (Vector Labs, Burlingame, Calif.). […] The MW of the HIR Ab is 150 kDa, and the MW of the HIR Ab-SGSH fusion protein is 325 kDa.

[2] = molecular target: T1, human insulin receptor extracellular …; experiment: ELISA, HIR ECD plated, biotinylated anti-human IgG detection
Method: as §1

[3] = molecular target: T1, human insulin receptor extracellular …; experiment: ELISA, HIR ECD plated; after normalization for MW (325 kDa)
Method: as §1

EC50 [1]: 0.19 nM | EC50 [2]: 0.029 mg/L
B1: chimeric HIRMAb (monoclonal antibody to the human insulin receptor) (antibody, human IgG1, kappa)
heavy: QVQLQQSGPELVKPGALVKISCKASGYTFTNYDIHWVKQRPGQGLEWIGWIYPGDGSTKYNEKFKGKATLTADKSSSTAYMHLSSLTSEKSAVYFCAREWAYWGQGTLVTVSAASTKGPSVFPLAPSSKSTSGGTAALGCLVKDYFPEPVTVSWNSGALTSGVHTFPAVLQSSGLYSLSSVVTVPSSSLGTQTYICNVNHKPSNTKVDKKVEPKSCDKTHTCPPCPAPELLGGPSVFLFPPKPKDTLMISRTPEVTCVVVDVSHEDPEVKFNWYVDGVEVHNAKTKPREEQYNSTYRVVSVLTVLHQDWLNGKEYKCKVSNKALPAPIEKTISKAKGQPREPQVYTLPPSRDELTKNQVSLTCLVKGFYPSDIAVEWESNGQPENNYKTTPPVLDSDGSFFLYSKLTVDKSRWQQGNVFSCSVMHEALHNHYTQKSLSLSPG
light: DIQMTQSPSSLSASLGERVSLTCRASQDIGGNLYWLQQGPDGTIKRLIYATSSLDSGVPKRFSGSRSGSDYSLTISSLESEDFVDYYCLQYSSSPWTFGGGTKMEIKRTVAAPSVFIFPPSDEQLKSGTASVVCLLNNFYPREAKVQWKVDNALQSGNSQESVTEQDSKDSTYSLSSTLTLSKADYEKHKVYACEVTHQGLSSPVTKSFNRGEC
notes: Its tie to the tested chimeric HIRMAb is indirect; MW 150 kDa; also called HIR Ab; chimeric HIR Ab

EC50 [3]: 0.33 nM | EC50 [2]: 0.107 mg/L
B2: HIRMAb-SGSH fusion protein (antibody, human IgG1, kappa)
heavy: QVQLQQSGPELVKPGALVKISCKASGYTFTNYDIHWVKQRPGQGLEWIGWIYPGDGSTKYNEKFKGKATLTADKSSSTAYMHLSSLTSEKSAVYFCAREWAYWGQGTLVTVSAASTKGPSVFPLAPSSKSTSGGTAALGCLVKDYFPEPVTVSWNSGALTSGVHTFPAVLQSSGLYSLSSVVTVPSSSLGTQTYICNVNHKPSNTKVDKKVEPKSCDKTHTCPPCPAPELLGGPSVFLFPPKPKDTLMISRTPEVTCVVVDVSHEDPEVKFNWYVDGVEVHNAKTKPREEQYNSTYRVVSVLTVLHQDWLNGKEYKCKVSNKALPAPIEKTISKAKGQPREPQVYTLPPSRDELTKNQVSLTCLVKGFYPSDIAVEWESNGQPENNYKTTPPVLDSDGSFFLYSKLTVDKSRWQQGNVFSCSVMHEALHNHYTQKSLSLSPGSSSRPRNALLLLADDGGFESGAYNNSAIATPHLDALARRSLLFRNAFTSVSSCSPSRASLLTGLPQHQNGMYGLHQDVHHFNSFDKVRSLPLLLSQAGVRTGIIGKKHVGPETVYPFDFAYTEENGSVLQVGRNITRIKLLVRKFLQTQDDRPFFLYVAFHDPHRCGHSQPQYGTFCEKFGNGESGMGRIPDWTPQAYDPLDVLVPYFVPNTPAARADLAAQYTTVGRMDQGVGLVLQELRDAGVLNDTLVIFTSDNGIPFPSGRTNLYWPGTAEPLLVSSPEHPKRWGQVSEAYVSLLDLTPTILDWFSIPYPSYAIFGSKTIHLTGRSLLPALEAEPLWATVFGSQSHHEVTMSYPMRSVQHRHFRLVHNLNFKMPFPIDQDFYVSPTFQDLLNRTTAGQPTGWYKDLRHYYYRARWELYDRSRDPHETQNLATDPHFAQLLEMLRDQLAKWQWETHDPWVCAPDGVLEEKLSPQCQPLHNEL
light: B1 light
modifications: Cys-514 of SEQ ID NO 10 undergoes post-translational conversion to formylglycine (inferred by the filing from retained enzyme activity)
notes: IgG-enzyme fusion, hetero-tetramer, CHO-derived, estimated MW 325 kDa; also called HIR Ab-SGSH fusion protein; HIR Ab-SGSH fusion antibody
